The values that follow come from patent publication US20130052195A1 (EMERGENT PRODUCT DEVELOPMENT SEATTLE, published 2013).

The target of the experiment is T1, murine IL6 (murine, UniProt P08505 25-211).
T1 construct: also called mIL-6; mIL6
T1 sequence (looked up): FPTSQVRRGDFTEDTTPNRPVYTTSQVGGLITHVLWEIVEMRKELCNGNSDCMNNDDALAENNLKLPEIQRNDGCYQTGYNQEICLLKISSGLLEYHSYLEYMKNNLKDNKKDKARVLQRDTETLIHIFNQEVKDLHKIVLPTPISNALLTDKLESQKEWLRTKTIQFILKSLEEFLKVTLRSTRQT
The experiment in a line: not described (statement in Example 1).

B1: A2-XT6 (multi-target binding molecule with the TNFR extracellular domain (ECD) at the N-terminal end and the anti-hyperIL6 scFv at the carboxy-terminal end) (other)
chain: LPAQVAFTPYAPEPGSTCRLREYYDQTAQMCCSKCSPGQHAKVFCTKTSDTVCDSCEDSTYTQLWNWVPECLSCGSRCSSDQVETQACTREQNRICTCRPGWYCALSKQEGCRLCAPLRKCRPGFGVARPGTETSDVVCKPCAPGTFSNTTSSTDICRPHQICNVVAIPGNASMDAVCTSTSPTRSMAPGAVHLPQPVSTRSQHTQPTPEPSTAPSTSFLLPMGPSPPAEGSTGDTGEPKSSDKTHTCPPCPAPEAAGAPSVFLFPPKPKDTLMISRTPEVTCVVVDVSHEDPEVKFNWYVDGVEVHNAKTKPREEQYNSTYRVVSVLTVLHQDWLNGKAYACAVSNKALPAPIEKTISKAKGQPREPQVYTLPPSRDELTKNQVSLTCLVKGFYPSDIAVEWESNGQPENNYKTTPPVLDSDGSFFLYSKLTVDKSRWQQGNVFSCSVMHEALHNHYTQKSLSLSPGQRHNNSSLNTRTQKARHSPNSEVQLLESGGGLVQPGGSLRLSCAASGFTFSFYQMHWVRQAPGKGLEWVSGIYPSGGYTKYADSVKGRFTISRDNSKNTLYLQMNSLRAEDTAVYYCARDLGYGSSWYYFDYWGQGTLVTVSSGGGGSGGGGSGGGGSQSALTQPASVSGSPGQSITISCSGTDSDVGGYNHVSWYQQHPGKAPKLIIYDVDHRPSGISNRFSGSKSGNTASLTISGLQAEDEADYYCSSYRSGSTYVFGTGTKVTVL
notes: also called Zeu080a; TRU(XT6)-1002
On to B1, for which the binding result is listed as “no binding”.
